Assay results: patent publication US20190153406

What was measured:
[1] = test system: IRS1 (insulin receptor substrate-1), species not stated

Row | Substance | MG53-mediated substrate degradation, Western Blot, HEK293T co-expression (FIG. 17) [1] | MG53-mediated substrate degradation, Western Blot, HEK293T co-expression (FIG. 16) [1] | degradation of IRβ, Western Blot, HEK293T co-expression (FIG. 16B) (insulin receptor IR) | degradation of precursor protein of IRβ, HEK293T co-expression (insulin receptor IR)
1 | human MG53-D-RING truncated mutant | human or mouse MG53-D-RING truncated mutant can hardly mediate IRS1 degradation | – | – | –
2 | mouse MG53-D-RING truncated mutant | – | human or mouse MG53-D-RING truncated mutant can hardly mediate IRS1 degradation | mouse MG53-D-RING truncated mutant and mouse MG53 S255A mutant can hardly mediate IRβ degradation | mouse MG53-D-RING truncated mutant and mouse MG53 S255A mutant almost completely inhibited MG53-mediated degradation
